According to patent US20060115428A1 (MorphoSys, published 2006):
Read-outs that look alike come from different tables or passages of the source.

Experiments:
[1] = target: recombinant fibronectin domain ED-B (His)6 (human) (UniProt P02751); assay: SPR (BIAcore), ED-B immobilised on chip
[2] = target: recombinant fibronectin domain ED-B (His)6 (human) (UniProt P02751); assay: SPR (BIAcore), ED-B immobilised on chip; remark: listed apart in the source
[3] = target: recombinant fibronectin domain ED-B (His)6 (human) (UniProt P02751); assay: SPR (BIAcore), ED-B immobilised on chip; remark: listed apart in the source
[4] = target: T1, recombinant fibronectin domain ED-B (His)6 (human, UniProt P02751 1266-1356); assay: SPR (BIAcore); ratio to parent clone MOR02715
T1 construct: domain: ED-B; Produced by standard procedures; immobilised on ELISA plates or on the BIAcore chip; also called recombinant ED-B; human ED-B
Protocol: (§1) F1-Chips (Biacore, Sweden) were coated with about 200 RU of ED-B (30 μg/ml, 10 mmol of acetate buffer, pH 4.0) and reference flow cells with a corresponding amount of human serum albumin (20 μg/ml, 10 mmol of acetate buffer, pH 4.5) with use of standard EDC-NHS-amine-coupling chemistry. The antigen density was reduced to about 100 RU for the Fab characterization of the second maturation. The regeneration was carried out with 10 mmol of HCl. All kinetic measurements were carried out in PBS buffer (136 mmol of NaCl, 2.7 mmol of KCl, 10 mmol of Na₂HPO₄, 1.76 mmol of KH₂PO₄, pH 7.4) with a flow rate of 20 μl/minute with use of a Fab concentration range of 1.5-500 nmol. The injection period was 1 minute in each case. All sensograms were evaluated with use of BIA evaluation software 3.1.

[5] = target: T1, recombinant fibronectin domain ED-B …; assay: SPR (BIAcore), ED-B immobilised on chip, Fab in flow
Protocol: as §1

[6] = target: T2, recombinant fibronectin domain 6 (UniProt P02751 1086-1172, limits assumed); assay: specificity ELISA on immobilised recombinant fibronectin domain 6
T2 construct: domain: fibronectin domain 6; also called 6FN; 6-FN

[7] = target: T3, recombinant fibronectin domain 7-8-9 (without ED-B) (UniProt P02751-1 1173-1446, limits assumed); assay: specificity ELISA on immobilised recombinant domain 7-8-9
T3 construct: domain: fibronectin domains 7-8-9 (without ED-B)

[8] = target: T1, recombinant fibronectin domain ED-B …; assay: SPR (BIAcore), ED-B immobilised on chip, Fab in flow; remark: listed apart in the source
Protocol: as §1
The properties of twelve selected binding molecules was determined by BIAcore analysis (see Table 1). […] At least two independent measurements with Fab molecules from different batches were performed for protein expression and protein purification. The binding rate (Kₒₙ) and the dissociating-off rate (Koff) of the Fab molecule are indicated in separate columns.

[9] = target: T3, recombinant fibronectin domain 7-8-9 …; assay: specificity ELISA on immobilised recombinant domain 7-8-9; remark: listed apart in the source
[10] = target: T1, recombinant fibronectin domain ED-B …; assay: SPR (BIAcore), ED-B immobilised on chip (about 100 RU), Fab in flow
Protocol: as §1

[11] = target: T2, recombinant fibronectin domain 6; assay: specificity ELISA on immobilised recombinant fibronectin domain 6; remark: listed apart in the source

Row | Molecule | Kd [5] [nM] | koff [5] [s⁻¹] | kon [5] [M⁻¹ s⁻¹] | binding result [9] | Kd [10] [nM] | koff [10] [s⁻¹] | kon [10] [M⁻¹ s⁻¹] | binding result [11] | other results
1 | AP39, covalent dimer of the anti-ED-B scFv antibody L19 |  |  |  |  |  |  |  |  | koff [1]: 0.0015 s⁻¹; Kd [2]: 2.4 nM; koff [2]: 0.00149 s⁻¹; kon [2]: 660000 M⁻¹ s⁻¹; kon [3]: 675000 M⁻¹ s⁻¹
2 | MOR03062 (Fab, V domains shown, Fab, L-CDR3 derivative of MOR02715) VH: QVQLVESGGGLVQPGGSLRLSCAASGFTFSSYGMHWVRQAPGKGLEWVSVISSSGSYIYYADSVKGRFTISRDNSKNTLYLQMNSLRAEDTAVYYCARNKVGFDVWGQGTLVTVSS VL: DIALTQPASVSGSPGQSITISCTGTSSDGGGYNTVSWYQQHPGKAPKLMIYYVHKRPSGVSNRFSGSKSGNTASLTISGLQAEDEADYYCQSWDLSVHQVVFGGGTKLTVLG | 3.4 | 0.011 | 3.5e+06 |  |  |  |  |  | x-Fold Improvement Relative to the Parent Clone, KD [4]: 15.8 fold; x-Fold Improvement Relative to the Parent Clone, Koff [4]: 4.2 fold; x-Fold Improvement Relative to the Parent Clone, Kon [4]: 4 fold
3 | MOR02715 (Fab, V domains shown, HuCAL GOLD Fab, VH3/L2) VH: QVQLVESGGGLVQPGGSLRLSCAASGFTFSSYGMHWVRQAPGKGLEWVSVISSSGSYIYYADSVKGRFTISRDNSKNTLYLQMNSLRAEDTAVYYCARNKVGFDVWGQGTLVTVSS VL: DIALTQPASVSGSPGQSITISCTGTSSDGGGYNTVSWYQQHPGKAPKLMIYYVHKRPSGVSNRFSGSKSGNTASLTISGLQAEDEADYYCQAWDNQGMKYVFGGGTKLTVLG | 53.7 | 0.047 | 990000 |  |  |  |  |  | binding result [6]: no binding; binding result [7]: no binding; Kd [8]: 53.7 nM; koff [8]: 0.047 s⁻¹; kon [8]: 890000 M⁻¹ s⁻¹
4 | MOR03064 (Fab, V domains shown, Fab, L-CDR3 derivative of MOR02715) VH: QVQLVESGGGLVQPGGSLRLSCAASGFTFSSYGMHWVRQAPGKGLEWVSVISSSGSYIYYADSVKGRFTISRDNSKNTLYLQMNSLRAEDTAVYYCARNKVGFDVWGQGTLVTVSS VL: DIALTQPASVSGSPGQSITISCTGTSSDGGGYNTVSWYQQHPGKAPKLMIYYVHKRPSGVSNRFSGSKSGNTASLTISGLQAEDEADYYCQSWDLLAPSVVFGGGTKLTVLG | 10 | 0.014 | 1.5e+06 |  |  |  |  |  | x-Fold Improvement Relative to the Parent Clone, KD [4]: 5.3 fold; x-Fold Improvement Relative to the Parent Clone, Koff [4]: 3.5 fold; x-Fold Improvement Relative to the Parent Clone, Kon [4]: 1.7 fold
5 | MOR03252 (Fab, V domains shown, Fab, H-CDR2 derivative of MOR03062) VH: QVQLVESGGGLVQPGGSLRLSCAASGFTFSSYGMHWVRQAPGKGLEWVSVISNYSWHIYYADSVKGRFTISRDNSKNTLYLQMNSLRAEDTAVYYCARNKVGFDVWGQGTLVTVSS VL: DIALTQPASVSGSPGQSITISCTGTSSDGGGYNTVSWYQQHPGKAPKLMIYYVHKRPSGVSNRFSGSKSGNTASLTISGLQAEDEADYYCQSWDLSVHQVVFGGGTKLTVLG |  |  |  | no binding | 0.03 | 6.1e-05 | 3.1e+06 | no binding | 
6 | MOR03257 (Fab, V domains shown, Fab, H-CDR2 derivative of MOR03062) VH: QVQLVESGGGLVQPGGSLRLSCAASGFTFSSYGMHWVRQAPGKGLEWVSVISNRGNYIYYADSVKGRFTISRDNSKNTLYLQMNSLRAEDTAVYYCARNKVGFDVWGQGTLVTVSS VL: DIALTQPASVSGSPGQSITISCTGTSSDGGGYNTVSWYQQHPGKAPKLMIYYVHKRPSGVSNRFSGSKSGNTASLTISGLQAEDEADYYCQSWDLSVHQVVFGGGTKLTVLG |  |  |  | no binding | 0.08 | 0.0003 | 5.3e+06 | no binding | 
7 | MOR03255 (Fab, V domains shown, Fab, H-CDR2 derivative of MOR03062) VH: QVQLVESGGGLVQPGGSLRLSCAASGFTFSSYGMHWVRQAPGKGLEWVSVISNRSSYIYYADSVKGRFTISRDNSKNTLYLQMNSLRAEDTAVYYCARNKVGFDVWGQGTLVTVSS VL: DIALTQPASVSGSPGQSITISCTGTSSDGGGYNTVSWYQQHPGKAPKLMIYYVHKRPSGVSNRFSGSKSGNTASLTISGLQAEDEADYYCQSWDLSVHQVVFGGGTKLTVLG |  |  |  | no binding | 0.03 | 8.6e-05 | 4.9e+06 | no binding | 
8 | MOR03251 (Fab, V domains shown, Fab, H-CDR2 derivative of MOR03062) VH: QVQLVESGGGLVQPGGSLRLSCAASGFTFSSYGMHWVRQAPGKGLEWVSVISNMSYTIYYADSVKGRFTISRDNSKNTLYLQMNSLRAEDTAVYYCARNKVGFDVWGQGTLVTVSS VL: DIALTQPASVSGSPGQSITISCTGTSSDGGGYNTVSWYQQHPGKAPKLMIYYVHKRPSGVSNRFSGSKSGNTASLTISGLQAEDEADYYCQSWDLSVHQVVFGGGTKLTVLG |  |  |  | no binding | 0.07 | 0.0002 | 3.3e+06 | no binding | 
9 | MOR03253 (Fab, V domains shown, Fab, H-CDR2 derivative) VH: QVQLVESGGGLVQPGGSLRLSCAASGFTFSSYGMHWVRQAPGKGLEWVSVISNMGFEIYYADSVKGRFTISRDNSKNTLYLQMNSLRAEDTAVYYCARNKVGFDVWGQGTLVTVSS VL: DIALTQPASVSGSPGQSITISCTGTSSDGGGYNTVSWYQQHPGKAPKLMIYYVHKRPSGVSNRFSGSKSGNTASLTISGLQAEDEADYYCQSWDLSVHQVVFGGGTKLTVLG |  |  |  | no binding | 0.13 | 0.0002 | 1.6e+06 | no binding | 
10 | MOR03245 (Fab, V domains shown, Fab, H-CDR2 derivative of MOR03069) VH: QVQLQESGPGLVKPGETLSLTCTVSGGSISSYYWSWIRQAPGKGLEWIGVIHKWGFTNYNPSLKSRVTISVDTSKNQFSLKLSSVTAADTAVYYCARFFDVWGQGTLVTVSS VL: DIVLTQPPSVSGAPGQRVTISCSGSSSNIGSNTVRWYQQLPGTAPKLLIYSNNKRPSGVPDRFSGSKSGTSASLAITGLQSEDEADYYCWTGMSYHFVFGGGTKLTVLG |  |  |  | no binding | 0.7 | 0.0016 | 3.5e+06 | no binding | 
